Results published in the supplement of paper PMC9732359.
± gives the uncertainty stated by the source.

Experiment: protein stability index of a GFP-peptide fusion (yeast GPS) (PSI 1-4); higher = more stable; sorted into four equal gates, so the index is relative within each strain
Conditions: san1∆
In short: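 Sequencing reads from sorted gates were used to score each peptide. The library consisted of tiled 17-residue yeast protein peptides fused downstream of GFP on a Cherry-expressing plasmid, pooled and carried in yeast. Mid-log cultures in leucine-free medium were split into four equal gates by GFP/Cherry ratio, and each gate's plasmids were PCR-amplified and Illumina-sequenced. The protein stability index adds up, over all gates, the read frequency multiplied by the gate number.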

PTHIWNAKRSHMMKRWG [POP1] gave a protein stability index of 1.98 ± 0.12.

Same assay, conditions: ubr1∆

Going from NTNELKEVSSFLMGIFN [MTR3] to NTNTENENRNTGAGVDV [SNF11], the protein stability index falls from 3.1 ± 0.046 to 2.88 ± 0.044.

Going from NTQDLLLLLSLFKKITN [YML103C/NUP188] to NVFGTLQRHSGISSTLV [YLR018C/POM34], the protein stability index rises from 1.55 ± 0.036 to 3.25 ± 0.27.

NVNMTVNTMGTGGQTID [MED6] and NVNNNNIGQQQVKKPRK [SWI1] are within error of each other in protein stability index: 3.37 ± 0.29 for the first, 3.13 ± 0.21 for the second.

NVPVHVSPAFRVQVGDI [RPS11A] and NVQLRDVIATEPQGAVT [SMD3] are within error of each other in protein stability index: 2.71 ± 0.06 for the first, 2.67 ± 0.071 for the second.

Going from NVRSVIRSSRSRGIVIG [RPP1] to NVVEIWVFSYLRWFELK [SIR3], the protein stability index falls from 3.2 ± 0.072 to 2.21 ± 0.063.

Compared with NVVGKLISIISSVIQNY [YML103C/NUP188], NWAKFTATASLGVIHKG [RPN2] is higher in protein stability index: 1.51 ± 0.089 for the first, 2 ± 0.061 for the second.

Going from NWRRLSGRNIHLAVVCV [SSN2] to NYGMIAINPGRVAASFS [FAS1], the protein stability index falls from 2.86 ± 0.045 to 1.81 ± 0.06.

Compared with NYILNFKQSNSETFLQF [CDC53], NYLNDMHDSNLQNNSDS [SKP1] is higher in protein stability index: 2.12 ± 0.11 for the first, 2.7 ± 0.054 for the second.

Going from NYSSESYRNAFTNVLTK [YJL039C/NUP192] to NYTQNIDNLESYAGIST [SIR2], the protein stability index rises from 2.48 ± 0.038 to 3.01 ± 0.044.

First: PADSTYGAYNTQIANAG [PRE4]
Second: PAFSFGAKPEEKKDDNS [YJL041W/NSP1]
The protein stability index of the first is lower: 1.69 ± 0.049 for the first, 3.29 ± 0.13 for the second.

Going from PAHTKYMLIEEAASSNK [ITC1] to PAHTVIIKGTDVYSPEK [BRR2], the protein stability index falls from 3.01 ± 0.095 to 2.68 ± 0.055.

Compared with PALVGKLRGDLREAPAD [SNF6], PANAEPQAVTITSIMDD [ITC1] is higher in protein stability index: 2.5 ± 0.17 for the first, 3.02 ± 0.11 for the second.

Going from PAQKDSSVVSEPKKPSF [YOR098C/NUP1] to PDGTLIASAGKDGEIML [ASC1], the protein stability index falls from 2.89 ± 0.042 to 2.8 ± 0.045.

Going from PDVKSLVQLSTMETKTL [SIR4] to PEPSHIDQVMMSVSDND [RET1], the protein stability index falls from 2.98 ± 0.063 to 2.48 ± 0.042.

Going from PFDQNLDSNNNNSNSNN [SWI1] to PFFSSNTSSLQSFQNPF [YIL149C/MLP2], the protein stability index rises from 2.74 ± 0.027 to 2.81 ± 0.033.

PFGAKSTKSNKAKNPLT [RPL8B] and PFGAKSTKSNKTRNPLT [RPL8A] are within error of each other in protein stability index: 2.93 ± 0.091 for the first, 2.8 ± 0.056 for the second.

Going from PFGVSTIFGGVDKNGAH [PRE10] to PFHSHLLVPASDLINKD [FAS1], the protein stability index falls from 2.97 ± 0.049 to 1.96 ± 0.032.

Compared with PFLHLRKKTPAGDWKYD [FAS2], PFLLMELHKKLVEAAKL [YDL116W/NUP84] is lower in protein stability index: 3.08 ± 0.21 for the first, 1.25 ± 0.13 for the second.

Compared with PFLNETKPGVYYVPYSK [RPC82], PFNKPNIETGENHNGQS [SWI3] is lower in protein stability index: 3.36 ± 0.091 for the first, 2.78 ± 0.13 for the second.

Compared with PFTDITVEGISKLLREH [RPB2], PGDIVRAQVLSLGDGTN [CSL4] is higher in protein stability index: 2.42 ± 0.067 for the first, 3.29 ± 0.12 for the second.

Compared with PGGAASKSVPTPSLPIA [SNF5], PGSSITETEVEREQPQE [SRB4] is higher in protein stability index: 3.06 ± 0.041 for the first, 3.35 ± 0.078 for the second.

Going from PHDLIIGTADIFIRQLK [BRR2] to PIDIFQIIRRVKEMEPK [SIR3], the protein stability index rises from 2.49 ± 0.052 to 2.94 ± 0.29.

PIGRDGKLAKPRQLHNT [RPB2] and PILAPSVKDYRPAEETE [RPS3] are within error of each other in protein stability index: 2.84 ± 0.081 for the first, 2.92 ± 0.04 for the second.

Compared with PIPDARNAALRAKAEAA [SCL1], PKDKAIKRMAIRNIVEA [RPS26A] is lower in protein stability index: 2.34 ± 0.092 for the first, 1.95 ± 0.054 for the second.

Going from PKEVDGLEVGPVVQVGI [IRR1] to PKFAIQDNHHITKVTEN [YMR129W/POM152], the protein stability index falls from 3.23 ± 0.08 to 3.09 ± 0.041.

Going from PKFGVEGLIRLDNLTED [DIS3] to PKGATYGKPTNQGVNEL [RPL15A], the protein stability index rises from 3.07 ± 0.038 to 3.29 ± 0.044.

PKHSYLSGNPLTSVTND [SIR4] and PKIDEDDTWYNLTEFVQ [AAR2] are within error of each other in protein stability index: 2.97 ± 0.074 for the first, 3.07 ± 0.057 for the second.

Going from PKILIREHERVILKQIL [SWP82] to PKWERVFLFDIEKVDRE [RRI2], the protein stability index falls from 3.15 ± 0.12 to 2.57 ± 0.073.

First: PKYESLKLEYYNLLVKI [RPN5]
Second: PLAAGNFVSEKGDLRRG [RPC53]
The protein stability index of the first is lower: 1.24 ± 0.059 for the first, 3.24 ± 0.11 for the second.

Compared with PLAPAPINLPPQIAQLP [SNF5], PLARNYIKSMDLISKKT [RPR2] is higher in protein stability index: 1.97 ± 0.061 for the first, 2.94 ± 0.039 for the second.

PLEKITDAYLDQYLWYE [PRP8] and PLFFVDLKLLFNTEAEQ [RGR1] are within error of each other in protein stability index: 3.18 ± 0.12 for the first, 3.14 ± 0.057 for the second.

Going from PLINLALIDTEFANFEL [YML103C/NUP188] to PLKFKLGPLSYQNMAFI [YJR042W/NUP85], the protein stability index falls from 2.95 ± 0.073 to 2.6 ± 0.049.

First: PLKIHRTPYLTSLKKIK [SWI1]
Second: PLLLVGLDKFSNIDIRV [RPS16A]
The protein stability index of the first is lower: 1.79 ± 0.039 for the first, 2.11 ± 0.044 for the second.

Going from PLPAVFSAPIRPDIVHT [RPL4A] to PLPSHALTVQEVLNRVA [YDL116W/NUP84], the protein stability index rises from 2.13 ± 0.041 to 2.33 ± 0.027.

Going from PLSRINENENFGYDIPL [YML103C/NUP188] to PLSTYNKNGNAVCSTAT [PGD1], the protein stability index falls from 3.08 ± 0.077 to 2.72 ± 0.088.

Going from PLYARYINVNPQEETIT [ECM29] to PLYVMDEIDAALDFRNV [SMC4], the protein stability index falls from 2.69 ± 0.041 to 2.51 ± 0.048.

Compared with PMHSIMPNSSLQPFYSQ [DSN1], PNFLGNCNIKDFKPPYI [SWP82] is higher in protein stability index: 2.49 ± 0.048 for the first, 2.65 ± 0.031 for the second.

Compared with PNIHQNLLPKKSAKATK [HTA1], PNKVKTEDIRIRAQNFK [RRP6] is higher in protein stability index: 2.49 ± 0.061 for the first, 2.84 ± 0.039 for the second.

Compared with PNTRDAESEAITVTAKQ [SWI3], PPQAGDRSLADDYDYVM [RPB8] is lower in protein stability index: 3.15 ± 0.05 for the first, 3 ± 0.09 for the second.

Compared with PPSLKIIDGPKALILAP [PRP28], PQDDDSQSKMMSSQISS [MTR3] is higher in protein stability index: 1.63 ± 0.039 for the first, 3.27 ± 0.053 for the second.

Compared with PQEETITFLIEKAKEMI [ECM29], PQFNSPYDSNNSNTNLN [SWI1] is lower in protein stability index: 3.16 ± 0.075 for the first, 2.9 ± 0.043 for the second.

First: PQLSKAGKFPTPVSHND [RPL1A]
Second: PQMFLNQQAQARQQVAQ [GAL11]
The protein stability index of the first is higher: 2.62 ± 0.031 for the first, 1.7 ± 0.091 for the second.

Going from PQTMEHYKQQIAVLIEL [YCS4] to PRETIPFLHLRKKTPAG [FAS2], the protein stability index rises from 2.52 ± 0.066 to 2.78 ± 0.094.

PRGLNSARKLRVHRRNN [RPS23A] and PRINNISAEDRADTDLA [SNF2] are within error of each other in protein stability index: 2.8 ± 0.073 for the first, 2.86 ± 0.086 for the second.

PRQTKKAKAQAQAQAQA [PGD1] and PRSDDLEATWNFIEPGI [CDC53] are within error of each other in protein stability index: 3.06 ± 0.059 for the first, 3.02 ± 0.11 for the second.

First: PRVSNQSNEDTFLPSYM [RRI2]
Second: PSEFHCLQDALDAIDDF [SSN2]
The protein stability index of the first is higher: 3.44 ± 0.067 for the first, 3.09 ± 0.097 for the second.

First: PSIPLVIIRRLKTRDWI [POP1]
Second: PSKGQSLSKISQAFDIV [RPP1]
The protein stability index of the first is lower: 2.53 ± 0.081 for the first, 3.2 ± 0.085 for the second.

PSLKDSSSNGGGSAKPS [RPC53] and PSLNKTINGKVNGRTKS [GAL11] are within error of each other in protein stability index: 2.93 ± 0.15 for the first, 3.11 ± 0.14 for the second.

Compared with PSNFEINAEEIVDFTLP [PRP8], PSNSTTTLHGPGFQLPN [SRB8] is lower in protein stability index: 3.02 ± 0.049 for the first, 2.91 ± 0.058 for the second.

Going from PSPYKTTVYRYSAAKKI [YAR002W/NUP60] to PSRTRETATSERNASEV [GRR1], the protein stability index rises from 1.67 ± 0.042 to 2.84 ± 0.14.

Going from PSSLNSDKIPYVAPTKK [SRB4] to PSTRCKLKLLRMERIKD [RPT2], the protein stability index falls from 2.09 ± 0.063 to 1.76 ± 0.064.

First: PSVKRQKMAELEAARSE [PRP8]
Second: PTHIWNAKRSHMMKRWG [POP1]
The protein stability index of the first is higher: 3.28 ± 0.077 for the first, 2.26 ± 0.067 for the second.
